Reference: IntAct's records for PubMed 9264463

B1: Catenin alpha-1 (Mus musculus), P26231 (parent)
chain: MTAVHAGNINFKWDPKSLEIRTLAVERLLEPLVTQVTTLVNTNSKGPSNKKRGRSKKAHVLAASVEQATENFLEKGDKIAKESQFLKEELVVAVEDVRKQGDLMKSAAGEFADDPCSSVKRGNMVRAARALLSAVTRLLILADMADVYKLLVQLKVVEDGILKLRNAGNEQDLGIQYKALKPEVDKLNIMAAKRQQELKDVGNRDQMAAARGILQKNVPILYTASQACLQHPDVAAYKANRDLIYKQLQQAVTGISNAAQATASDDAAQHQGGSGGELAYALNNFDKQIIVDPLSFSEERFRPSLEERLESIISGAALMADSSCTRDDRRERIVAECNAVRQALQDLLSEYMGNAGRKERSDALNSAIDKMTKKTRDLRRQLRKAVMDHVSDSFLETNVPLLVLIEAAKNGNEKEVKEYAQVFREHANKLIEVANLACSISNNEEGVKLVRMSASQLEALCPQVINAALALAAKPQSKLAQENMDLFKEQWEKQVRVLTDAVDDITSIDDFLAVSENHILEDVNKCVIALQEKDVDGLDRTAGAIRGRAARVIHVVTSEMDNYEPGVYTEKVLEATKLLSNTVMPRFTEQVEAAVEALSSDPAQPMDENEFIDASRLVYDGIRDIRKAVLMIRTPEELDDSDFETEDFDVRSRTSVQTEDDQLIAGQSARAIMAQLPQEQKAKIAEQVASFQEEKSKLDAEVSKWDDSGNDIIVLAKQMCMIMMEMTDFTRGKGPLKNTSDVISAAKKIAEAGSRMDKLGRTIADHCPDSACKQDLLAYLQRIALYCHQLNICSKVKAEVQNLGGELVVSGVDSAMSLIQAAKNLMNAVVQTVKASYVASTKYQKSQGMASLNLPAVSWKMKAPEKKPLVKREKQDETQTKIKRASQKKHVNPVQALSEFKAMDSI

Variants of: B1
Details: with ctnb1_human CTNNB1, P35222
ctnb1_human CTNNB1, P35222, sequence (P35222 whole entry): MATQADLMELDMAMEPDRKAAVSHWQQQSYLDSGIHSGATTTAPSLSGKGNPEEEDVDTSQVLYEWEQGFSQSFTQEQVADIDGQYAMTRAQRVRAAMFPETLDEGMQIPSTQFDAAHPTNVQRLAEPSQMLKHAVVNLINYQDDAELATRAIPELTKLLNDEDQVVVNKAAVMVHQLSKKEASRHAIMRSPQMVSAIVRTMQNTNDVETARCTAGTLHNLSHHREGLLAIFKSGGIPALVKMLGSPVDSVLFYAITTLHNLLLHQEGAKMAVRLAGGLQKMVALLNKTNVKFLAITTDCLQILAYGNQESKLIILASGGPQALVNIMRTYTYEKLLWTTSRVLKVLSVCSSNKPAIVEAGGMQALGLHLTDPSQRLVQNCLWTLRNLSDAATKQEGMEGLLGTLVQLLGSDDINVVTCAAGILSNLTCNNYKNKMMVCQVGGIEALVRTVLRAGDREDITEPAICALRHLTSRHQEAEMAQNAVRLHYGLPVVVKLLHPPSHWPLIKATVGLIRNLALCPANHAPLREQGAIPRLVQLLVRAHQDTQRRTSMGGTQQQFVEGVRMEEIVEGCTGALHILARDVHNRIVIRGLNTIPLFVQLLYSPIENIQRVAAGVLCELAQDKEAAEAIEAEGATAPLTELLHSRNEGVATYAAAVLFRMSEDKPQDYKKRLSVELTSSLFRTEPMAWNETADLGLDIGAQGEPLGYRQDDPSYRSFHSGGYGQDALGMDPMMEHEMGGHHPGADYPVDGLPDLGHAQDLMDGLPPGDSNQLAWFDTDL

Variant | effect of a mutation on the interaction
R129A | increasing interaction
S133A | increasing interaction
L132A | decreasing interaction
V125A | decreasing interaction
R126A | increasing interaction
L131A | decreasing interaction

Continued, values first:

effect of a mutation on the interaction | Variant
decreasing interaction | L141A
decreasing interaction | A142S
decreasing interaction | L138A
decreasing interaction | L139A
decreasing interaction | V135A
increasing interaction | T136A
decreasing interaction | R137A
